Data reported in publication PMC9142731 (Virology Journal, 2022).

Legend:
Details in all cases: both partners purified
[1] = target: T1, SARS-CoV-2 nucleocapsid protein (WT), recombinant (Severe acute respiratory syndrome …, UniProt P0DTC9); experiment: SPR
T1 construct: also called SARS-CoV-2 NP; WT NP; source: bought: Sino Biological; not shown: His tag, C-terminal, kept

[2] = target: T2, MERS-CoV nucleocapsid protein, recombinant (MERS-CoV, strain , UniProt K9N4V7); experiment: ELISA
T2 construct: also called MERS-CoV NP; source: bought: Sino Biological

[3] = target: T3, OC43 nucleocapsid protein, recombinant (Human coronavirus OC43 (HCoV-OC43)., UniProt P33469); experiment: ELISA
T3 construct: also called OC43 NP; source: bought: Sino Biological

[4] = target: T4, NL63 nucleocapsid protein, recombinant (Human coronavirus NL63 (HCoV-NL63)., UniProt Q6Q1R8); experiment: ELISA
T4 construct: also called NL63 NP; source: bought: Sino Biological

[5] = target: T5, HKU1 nucleocapsid protein, recombinant (Human coronavirus HKU1 (isolate N1) …, UniProt Q5MQC6); experiment: ELISA
T5 construct: also called HKU1 NP; source: bought: Sino Biological

[6] = target: T6, SARS-CoV nucleocapsid protein, recombinant (Severe acute respiratory syndrome …, UniProt P59595)
T6 construct: also called SARS-CoV NP; source: bought: Sino Biological

[7] = target: T7, 229E nucleocapsid protein, recombinant (Human coronavirus 229E (HCoV-229E)., UniProt P15130)
T7 construct: also called 229E NP; source: bought: Sino Biological

B1: P301-F7 (antibody, V domains shown)
VH: QLQLQESGPGLVKPSETLSLTCTVSGGSISSTSYYWGWIRQPPGKGLEWIGSIYYSGSTYYNPSLKSRVTISVDTSKNQFSLKLSSVTAADTAVYYCARFSLYCSSTSCYENWFDPWGQGTLVTVSS
VL: QSVLTQPPSVSAAPGQKVTISCSGSSSNIGNNYVSWYQQLPGTAPKLLIYDNNKRPSGIPDRFSGSKSGTSATLGITGLQTGDEADYYCGTWDSSLSAGQVVFGGGTKLTVL
notes: source: 293 F cells, transient transfection, purified (Protein A beads)
Kd [1]: 13.3 nM | binding result [2]: no binding | binding result [3]: no binding | binding result [4]: no binding | binding result [5]: no binding | Kd [6]: 14.9 nM | binding result [7]: no binding
